How the values were obtained:
[1] = molecular target: Env of HIV-1 strain 7165.18 (pseudovirus) (HIV-1)
[2] = molecular target: Env of HIV-1 strain BG 1168 (pseudovirus) (HIV-1)
[3] = molecular target: Env of HIV-1 strain CNE4 (pseudovirus) (HIV-1)
[4] = molecular target: Env of HIV-1 strain JRFL (pseudovirus) (HIV-1)
[5] = molecular target: Env of HIV-1 strain QH0515 (pseudovirus) (HIV-1)
[6] = molecular target: Env of HIV-1 strain RHPA (pseudovirus) (HIV-1)
[7] = molecular target: Env of HIV-1 strain T251-18 (pseudovirus) (HIV-1)
[8] = molecular target: Env of HIV-1 strain 6322 (pseudovirus) (HIV-1)
[9] = molecular target: Env of HIV-1 strain 6471 (pseudovirus) (HIV-1)
[10] = molecular target: Env of HIV-1 strain 6631 (pseudovirus) (HIV-1)
[11] = molecular target: Env of HIV-1 strain ZM135 (pseudovirus) (HIV-1)

Substance: monoclonal antibody PG9
- neutralization IC50 (89.6.DG): > 50 µg/mL
- neutralization IC50 (AC10.29): 0.078 µg/mL
- neutralization IC50 (ADA.DG): 0.342 µg/mL
- neutralization IC50 (BL01.DG): > 50 µg/mL
- neutralization IC50 (BR07.DG): > 50 µg/mL
- neutralization IC50 (BX08_16): 0.024 µg/mL
- neutralization IC50 (BaL.26): 0.034 µg/mL
- neutralization IC50 (Bal.01): 0.052 µg/mL
- neutralization IC50 (CAAN.A2): 13 µg/mL
- neutralization IC50 (CNE10): 0.243 µg/mL
- neutralization IC50 (CNE12): > 50 µg/mL
- neutralization IC50 (CNE14): > 50 µg/mL
- neutralization IC50 (DJ263.8): 0.1 µg/mL
- neutralization IC50 [1]: > 50 µg/mL
- neutralization IC50 [2]: > 50 µg/mL
- neutralization IC50 [3]: > 50 µg/mL
- neutralization IC50 [4]: > 50 µg/mL
- neutralization IC50 [5]: > 50 µg/mL
- neutralization IC50 [6]: > 50 µg/mL
- neutralization IC50 [7]: > 50 µg/mL
- neutralization IC50 (HO86.8): 0.014 µg/mL
- neutralization IC50 (HT593.1): 0.271 µg/mL
- neutralization IC50 (HXB2.DG): 0.553 µg/mL
- neutralization IC50 (JR-CSF): 0.003 µg/mL
- neutralization IC50 (MN.3): > 50 µg/mL
- neutralization IC50 (PVO.04): 6.24 µg/mL
- neutralization IC50 (QH0692.42 (pseudovirus)): > 50 µg/mL
- neutralization IC50 (REJO.67): 0.005 µg/mL
- neutralization IC50 (SC422.8): 0.535 µg/mL
- neutralization IC50 (SF162.LS): > 50 µg/mL
- neutralization IC50 (SS1196.01): 0.293 µg/mL
- neutralization IC50 (T250-4): < 0.0006 µg/mL
- neutralization IC50 (T253-11): 0.127 µg/mL
- neutralization IC50 (T255-34): 0.015 µg/mL
- neutralization IC50 (T257-31): 0.02 µg/mL
- neutralization IC50 (T266-60): 24 µg/mL
- neutralization IC50 (T278-50): 0.913 µg/mL
- neutralization IC50 (T280-5): 0.379 µg/mL
- neutralization IC50 (T33-7): < 0.023 µg/mL
- neutralization IC50 (THRO.18): 15 µg/mL
- neutralization IC50 (TRJO.58): 0.246 µg/mL
- neutralization IC50 (TRO.11 (pseudovirus)): 41.5 µg/mL
- neutralization IC50 (WITO.33): < 0.023 µg/mL
- neutralization IC50 (YU2.DG): 3.69 µg/mL
- neutralization IC50 (0077_V1.C16): 0.091 µg/mL
- neutralization IC50 (3168.V4.C10): 0.162 µg/mL
- neutralization IC50 (6644.V2.C33): 0.033 µg/mL
- neutralization IC50 (BR025.9): 0.044 µg/mL
- neutralization IC50 (CAP244.D3): 0.088 µg/mL
- neutralization IC50 (CAP45.G3): < 0.023 µg/mL
- neutralization IC50 (CH038.12): 0.5 µg/mL
- neutralization IC50 (CH117.4): 0.008 µg/mL
- neutralization IC50 (CNE15): < 0.023 µg/mL
- neutralization IC50 (CNE31): 13.5 µg/mL
- neutralization IC50 (CNE53): 0.147 µg/mL
- neutralization IC50 (CNE57): > 50 µg/mL
- neutralization IC50 (CNE58): < 0.023 µg/mL
- neutralization IC50 (CNE7): 1.66 µg/mL
- neutralization IC50 (DU151.02): < 0.023 µg/mL
- neutralization IC50 (DU172.17): 0.262 µg/mL
- neutralization IC50 [8]: > 50 µg/mL
- neutralization IC50 [9]: > 50 µg/mL
- neutralization IC50 [10]: > 50 µg/mL
- neutralization IC50 [11]: > 50 µg/mL
- neutralization IC50 (MW965.26): 1.99 µg/mL
- neutralization IC50 (TV1.29): 0.008 µg/mL
- neutralization IC50 (TZBD.02): 0.266 µg/mL
- neutralization IC50 (ZA012.29): 27 µg/mL
- neutralization IC50 (ZM109.4): 0.106 µg/mL
- neutralization IC50 (ZM176.66): 0.007 µg/mL
- neutralization IC80 (CAAN.A2 (HIV-1)): > 50 µg/mL
- neutralization IC80 (CNE14 (HIV-1)): > 50 µg/mL

Substance: monoclonal antibody PG16
- neutralization IC50 (89.6.DG): > 50 µg/mL
- neutralization IC50 (AC10.29): < 0.023 µg/mL
- neutralization IC50 (ADA.DG): 0.023 µg/mL
- neutralization IC50 (BL01.DG): > 50 µg/mL
- neutralization IC50 (BR07.DG): > 50 µg/mL
- neutralization IC50 (BX08_16): 0.062 µg/mL
- neutralization IC50 (BaL.26): 0.136 µg/mL
- neutralization IC50 (Bal.01): 8 µg/mL
- neutralization IC50 (CAAN.A2): 7.43 µg/mL
- neutralization IC50 (CNE10): 9.17 µg/mL
- neutralization IC50 (CNE12): > 50 µg/mL
- neutralization IC50 (CNE14): > 50 µg/mL
- neutralization IC50 (DJ263.8): 0.048 µg/mL
- neutralization IC50 [1]: > 50 µg/mL
- neutralization IC50 [2]: > 50 µg/mL
- neutralization IC50 [3]: > 50 µg/mL
- neutralization IC50 [4]: > 50 µg/mL
- neutralization IC50 [5]: > 50 µg/mL
- neutralization IC50 [6]: 1.32 µg/mL
- neutralization IC50 [7]: 10.5 µg/mL
- neutralization IC50 (HO86.8): 0.001 µg/mL
- neutralization IC50 (HT593.1): 0.153 µg/mL
- neutralization IC50 (HXB2.DG): > 50 µg/mL
- neutralization IC50 (JR-CSF): 0.002 µg/mL
- neutralization IC50 (MN.3): > 50 µg/mL
- neutralization IC50 (PVO.04): 19.8 µg/mL
- neutralization IC50 (QH0692.42 (pseudovirus)): > 50 µg/mL
- neutralization IC50 (REJO.67): 0.005 µg/mL
- neutralization IC50 (SC422.8): 1.2 µg/mL
- neutralization IC50 (SF162.LS): > 50 µg/mL
- neutralization IC50 (SS1196.01): 0.069 µg/mL
- neutralization IC50 (T250-4): < 0.0006 µg/mL
- neutralization IC50 (T253-11): 4.44 µg/mL
- neutralization IC50 (T255-34): 0.005 µg/mL
- neutralization IC50 (T257-31): 0.003 µg/mL
- neutralization IC50 (T266-60): > 50 µg/mL
- neutralization IC50 (T278-50): 1.13 µg/mL
- neutralization IC50 (T280-5): 0.233 µg/mL
- neutralization IC50 (T33-7): < 0.023 µg/mL
- neutralization IC50 (THRO.18): 0.975 µg/mL
- neutralization IC50 (TRJO.58): 0.393 µg/mL
- neutralization IC50 (TRO.11 (pseudovirus)): 4.86 µg/mL
- neutralization IC50 (WITO.33): < 0.023 µg/mL
- neutralization IC50 (YU2.DG): 0.041 µg/mL
- neutralization IC50 (0077_V1.C16): < 0.023 µg/mL
- neutralization IC50 (3168.V4.C10): 0.037 µg/mL
- neutralization IC50 (6644.V2.C33): 35.3 µg/mL
- neutralization IC50 (BR025.9): 0.009 µg/mL
- neutralization IC50 (CAP244.D3): < 0.023 µg/mL
- neutralization IC50 (CAP45.G3): < 0.023 µg/mL
- neutralization IC50 (CH038.12): 49 µg/mL
- neutralization IC50 (CH117.4): 0.005 µg/mL
- neutralization IC50 (CNE15): < 0.023 µg/mL
- neutralization IC50 (CNE31): 2.51 µg/mL
- neutralization IC50 (CNE53): > 50 µg/mL
- neutralization IC50 (CNE57): > 50 µg/mL
- neutralization IC50 (CNE58): < 0.023 µg/mL
- neutralization IC50 (CNE7): 0.393 µg/mL
- neutralization IC50 (DU151.02): < 0.023 µg/mL
- neutralization IC50 (DU172.17): 0.03 µg/mL
- neutralization IC50 [8]: > 50 µg/mL
- neutralization IC50 [9]: > 50 µg/mL
- neutralization IC50 [10]: > 50 µg/mL
- neutralization IC50 [11]: > 50 µg/mL
- neutralization IC50 (MW965.26): 0.961 µg/mL
- neutralization IC50 (TV1.29): 0.002 µg/mL
- neutralization IC50 (TZBD.02): 0.025 µg/mL
- neutralization IC50 (ZA012.29): 0.631 µg/mL
- neutralization IC50 (ZM109.4): 4.93 µg/mL
- neutralization IC50 (ZM176.66): 0.002 µg/mL
- neutralization IC80 (CAAN.A2 (HIV-1)): > 50 µg/mL
- neutralization IC80 (CNE14 (HIV-1)): > 50 µg/mL

Source: patent US20140348865A1, “[…] ON AN HIV-1 V1V2 SITE-OF-VULNERABILITY” (The United States of America, as represented by the …, priority 2011, published 2014)
